Measurements reported in publication PMC11665612.

What was measured:
[1] = target: heme-binding globin domain of human androglobin (Adgb), Cys132 mutated to Ser (human)
[2] = target: FL-G41C CaM (calmodulin G41C labelled with fluorescein-5-maleimide at Cys41, N-lobe) (UniProt P0DP23); test: fluorescence quenching on mixing

| k1 (fast) of nitrite reduction, Adgb–CaM complex against Adgb alone [1] [fold] | kcat of nitrite reduction by the Adgb–CaM complex (nitrite 2.5–15 mM) [1] [s⁻¹] | decrease in fluorescence intensity at 531 nm [2] [%] | Substance |
| --- | --- | --- | --- |
| 1.8 | 0.64 |  | calmodulin (CaM) (from UniProt P0DP23 1-149) (natural protein) |
|  |  | 35 | heme-binding globin domain of human androglobin (Adgb), Cys132 mutated to Ser (domain or fragment) |
